In patent US12099068B2, “Biomarkers for graft-versus-host disease” (Incyte Corporation, priority 2018, dated 2024):

B1: CD177 (protein, UniProt Q8N6Q3 22-408, looked up)
CD177 antigen: LLCQFGTVQHVWKVSDLPRQWTPKNTSCDSGLGCQDTLMLIESGPQVSLVLSKGCTEAKDQEPRVTEHRMGPGLSLISYTFVCRQEDFCNNLVNSLPLWAPQPPADPGSLRCPVCLSMEGCLEGTTEEICPKGTTHCYDGLLRLRGGGIFSNLRVQGCMPQPGCNLLNGTQEIGPVGMTENCNRKDFLTCHRGTTIMTHGNLAQEPTDWTTSNTEMCEVGQVCQETLLLLDVGLTSTLVGTKGCSTVGAQNSQKTTIHSAPPGVLVASYTHFCSSDLCNSASSSSVLLNSLPPQAAPVPGDRQCPTCVQPLGTCSSGSPRMTCPRGATHCYDGYIHLSGGGLSTKMSIQGCVAQPSSFLLNHTRQIGIFSAREKRDVQPPASQHEGG
B2: MILR1 (protein, UniProt Q7Z6M3 20-343, looked up)
Allergin-1: RKAVLDCEAMKTNEFPSPCLDSKTKVVMKGQNVSMFCSHKNKSLQITYSLFRRKTHLGTQDGKGEPAIFNLSITEAHESGPYKCKAQVTSCSKYSRDFSFTIVDPVTSPVLNIMVIQTETDRHITLHCLSVNGSLPINYTFFENHVAISPAISKYDREPAEFNLTKKNPGEEEEYRCEAKNRLPNYATYSHPVTMPSTGGDSCPFCLKLLLPGLLLLLVVIILILAFWVLPKYKTRKAMRNNVPRDRGDTAMEVGIYANILEKQAKEESVPEVGSRPCVSTAQDEAKHSQELQYATPVFQEVAPREQEACDSYKSGYVYSELNF
B3: KLRD1 (protein, UniProt Q13241 1-179, looked up)
Natural killer cells antigen …: MAVFKTTLWRLISGTLGIICLSLMSTLGILLKNSFTKLSIEPAFTPGPNIELQKDSDCCSCQEKWVGYRCNCYFISSEQKTWNESRHLCASQKSSLLQLQNTDELDFMSSSQQFYWIGLSYSEEHTAWLWENGSALSQYLFPSFETFNTKNCIAYNPNGNALDESCEDKNRYICKQQLI
B4: GDF-2 (protein, UniProt Q9UK05 320-429, looked up)
Growth/differentiation factor …: SAGAGSHCQKTSLRVNFEDIGWDSWIIAPKEYEAYECKGGCFFPLADDVTPTKHAIVQTLVHLKFPTKVGKACCVPTKLSPISVLYKDDMGVPTLKYHYEGMSVAECGCR
B5: ERBB2IP (protein, UniProt Q96RT1 1-1412, looked up)
Erbin: MTTKRSLFVRLVPCRCLRGEEETVTTLDYSHCSLEQVPKEIFTFEKTLEELYLDANQIEELPKQLFNCQSLHKLSLPDNDLTTLPASIANLINLRELDVSKNGIQEFPENIKNCKVLTIVEASVNPISKLPDGFSQLLNLTQLYLNDAFLEFLPANFGRLTKLQILELRENQLKMLPKTMNRLTQLERLDLGSNEFTEVPEVLEQLSGLKEFWMDANRLTFIPGFIGSLKQLTYLDVSKNNIEMVEEGISTCENLQDLLLSSNSLQQLPETIGSLKNITTLKIDENQLMYLPDSIGGLISVEELDCSFNEVEALPSSIGQLTNLRTFAADHNYLQQLPPEIGSWKNITVLFLHSNKLETLPEEMGDMQKLKVINLSDNRLKNLPFSFTKLQQLTAMWLSDNQSKPLIPLQKETDSETQKMVLTNYMFPQQPRTEDVMFISDNESFNPSLWEEQRKQRAQVAFECDEDKDEREAPPREGNLKRYPTPYPDELKNMVKTVQTIVHRLKDEETNEDSGRDLKPHEDQQDINKDVGVKTSESTTTVKSKVDEREKYMIGNSVQKISEPEAEISPGSLPVTANMKASENLKHIVNHDDVFEESEELSSDEEMKMAEMRPPLIETSINQPKVVALSNNKKDDTKETDSLSDEVTHNSNQNNSNCSSPSRMSDSVSLNTDSSQDTSLCSPVKQTHIDINSKIRQEDENFNSLLQNGDILNSSTEEKFKAHDKKDFNLPEYDLNVEERLVLIEKSVDSTATADDTHKLDHINMNLNKLITNDTFQPEIMERSKTQDIVLGTSFLSINSKEETEHLENGNKYPNLESVNKVNGHSEETSQSPNRTEPHDSDCSVDLGISKSTEDLSPQKSGPVGSVVKSHSITNMEIGGLKIYDILSDNGPQQPSTTVKITSAVDGKNIVRSKSATLLYDQPLQVFTGSSSSSDLISGTKAIFKFDSNHNPEEPNIIRGPTSGPQSAPQIYGPPQYNIQYSSSAAVKDTLWHSKQNPQIDHASFPPQLLPRSESTENQSYAKHSANMNFSNHNNVRANTAYHLHQRLGPARHGEMWAISPNDRLIPAVTRSTIQRQSSVSSTASVNLGDPGSTRRAQIPEGDYLSYREFHSAGRTPPMMPGSQRPLSARTYSIDGPNASRPQSARPSINEIPERTMSVSDFNYSRTSPSKRPNARVGSEHSLLDPPGKSKVPRDWREQVLRHIEAKKLEKKHPQTSSSGDPCQDGIFISGQQNYSSATLSHKDVPPDSLMKMPLSNGQMGQPLRPQANYSQIHHPPQASVARHPSREQLIDYLMLKVAHQPPYTQPHCSPRQGHELAKQEIRVRVEKDPELGFSISGGVGGRGNPFRPDDDGIFVTRVQPEGPASKLLQPGDKIIQANGYSFINIEHGQAVSLLKTFQNTVELIIVREVSS
B6: INPPL1 (protein, UniProt O15357 1-1258, looked up)
Phosphatidylinositol …: MASACGAPGPGGALGSQAPSWYHRDLSRAAAEELLARAGRDGSFLVRDSESVAGAFALCVLYQKHVHTYRILPDGEDFLAVQTSQGVPVRRFQTLGELIGLYAQPNQGLVCALLLPVEGEREPDPPDDRDASDGEDEKPPLPPRSGSTSISAPTGPSSPLPAPETPTAPAAESAPNGLSTVSHDYLKGSYGLDLEAVRGGASHLPHLTRTLATSCRRLHSEVDKVLSGLEILSKVFDQQSSPMVTRLLQQQNLPQTGEQELESLVLKLSVLKDFLSGIQKKALKALQDMSSTAPPAPQPSTRKAKTIPVQAFEVKLDVTLGDLTKIGKSQKFTLSVDVEGGRLVLLRRQRDSQEDWTTFTHDRIRQLIKSQRVQNKLGVVFEKEKDRTQRKDFIFVSARKREAFCQLLQLMKNKHSKQDEPDMISVFIGTWNMGSVPPPKNVTSWFTSKGLGKTLDEVTVTIPHDIYVFGTQENSVGDREWLDLLRGGLKELTDLDYRPIAMQSLWNIKVAVLVKPEHENRISHVSTSSVKTGIANTLGNKGAVGVSFMFNGTSFGFVNCHLTSGNEKTARRNQNYLDILRLLSLGDRQLNAFDISLRFTHLFWFGDLNYRLDMDIQEILNYISRKEFEPLLRVDQLNLEREKHKVFLRFSEEEISFPPTYRYERGSRDTYAWHKQKPTGVRTNVPSWCDRILWKSYPETHIICNSYGCTDDIVTSDHSPVFGTFEVGVTSQFISKKGLSKTSDQAYIEFESIEAIVKTASRTKFFIEFYSTCLEEYKKSFENDAQSSDNINFLKVQWSSRQLPTLKPILADIEYLQDQHLLLTVKSMDGYESYGECVVALKSMIGSTAQQFLTFLSHRGEETGNIRGSMKVRVPTERLGTRERLYEWISIDKDEAGAKSKAPSVSRGSQEPRSGSRKPAFTEASCPLSRLFEEPEKPPPTGRPPAPPRAAPREEPLTPRLKPEGAPEPEGVAAPPPKNSFNNPAYYVLEGVPHQLLPPEPPSPARAPVPSATKNKVAITVPAPQLGHHRHPRVGEGSSSDEESGGTLPPPDFPPPPLPDSAIFLPPSLDPLPGPVVRGRGGAEARGPPPPKAHPRPPLPPGPSPASTFLGEVASGDDRSCSVLQMAKTLSEVDYAPAGPARSALLPGPLELQPPRGLPSDYGRPLSFPPPRIRESIQEDLAEEAPCLQGGRASGLGEAGMSAWLRAIGLERYEEGLVHNGWDDLEFLSDITEEDLEEAGVQDPAHKRLLLDTLQLSK
B7: MIF (protein, UniProt P14174 2-115, looked up)
Macrophage migration …: PMFIVNTNVPRASVPDGFLSELTQQLAQATGKPPQYIAVHVVPDQLMAFGGSSEPCALCSLHSIGKIGGAQNRSYSKLLCGLLAERLRISPDRVYINYYDMNAANVGWNNSTFA
B8: VEGFD (protein, UniProt O43915 89-205, looked up)
Vascular endothelial growth …: FAATFYDIETLKVIDEEWQRTQCSPRETCVEVASELGKSTNTFFKPPCVNVFRCGGCCNEESLICMNTSTSYISKQLFEISVPLTSVPELVPVKVANHTGCKCLPTAPRHPYSIIRR

The molecules below were run on plasma proteins (assay: Plasma proteins modulated between baseline and day 28 in responders (CR, VGPR, PR; n = 19), Example 6 (Table 13)). Settings: plasma protein (OLINK NPX); responders (CR, VGPR, PR; n = 19); itacitinib 200 mg or 300 mg QD with corticosteroids; day 28 vs baseline.
Type: in vivo, human
How it was run: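 Longitudinal comparison, day 28 versus baseline, with steroid-naive (N=10) and steroid-refractory (N=18) patients combined. Proteins measured by OLINK proximity extension, log2 normalized protein expression. Differences tested by t tests, ANOVA, Pearson correlation, P<0.05 significant.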

Point of comparison: B2, “Fold Change, Decreased Expression from Baseline to Day 28” value −1.3829. Against it:
- B1 — lower, −1.768
- B3 — lower, −1.8117
- B5 — lower, −1.7337
- B6 — lower, −1.7131
- B7 — lower, −1.7486

Point of comparison: B8, “Fold Change, Increased Expression from Baseline to Day 28” value 1.147. Against it:
- B4 — higher, 1.3656
